Laboratory results as given in patent US20220119518A1 (KUMHO HT, published 2022).

T1: Antigen CD66c (CEACAM6; Sino Biological, Inc.) (UniProt P40199 35-320)
T1 construct: Bought antigen, coated on the ELISA plate; construct not described; also called CECACAM6 (CD66c) antigen; CD66c antigen
T1 sequence (looked up): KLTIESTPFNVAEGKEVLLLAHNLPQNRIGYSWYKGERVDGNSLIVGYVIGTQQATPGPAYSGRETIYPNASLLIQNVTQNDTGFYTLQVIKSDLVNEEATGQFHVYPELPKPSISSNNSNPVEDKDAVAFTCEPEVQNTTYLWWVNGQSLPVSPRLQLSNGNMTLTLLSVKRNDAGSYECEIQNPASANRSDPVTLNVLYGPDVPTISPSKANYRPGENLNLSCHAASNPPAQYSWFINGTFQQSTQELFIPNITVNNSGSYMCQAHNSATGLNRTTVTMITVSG

T2: CEACAM1 antigen (Sino Biological, Inc.) (UniProt P13688 35-428)
T2 construct: Bought antigen, coated on the ELISA plate; construct not described; also called CEACAM1 (CD66a) antigen; CD66a
T2 sequence (looked up): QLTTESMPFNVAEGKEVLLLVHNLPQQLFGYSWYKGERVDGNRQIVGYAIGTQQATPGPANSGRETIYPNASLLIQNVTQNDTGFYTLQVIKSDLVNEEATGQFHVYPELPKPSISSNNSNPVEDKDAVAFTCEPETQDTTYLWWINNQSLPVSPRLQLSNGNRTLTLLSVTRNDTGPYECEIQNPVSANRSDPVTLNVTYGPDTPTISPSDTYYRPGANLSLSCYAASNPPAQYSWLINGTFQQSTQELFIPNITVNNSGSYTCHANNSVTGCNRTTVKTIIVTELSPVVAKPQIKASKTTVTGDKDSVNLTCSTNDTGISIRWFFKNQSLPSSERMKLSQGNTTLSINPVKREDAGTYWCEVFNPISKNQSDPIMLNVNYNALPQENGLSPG

T3: CD66c (Cluster of Differentiation 66c) on cells (UniProt P40199 35-320, limits assumed)
T3 construct: whole, on cells; also called CEACAM6; CEACAM 6
T3 sequence (looked up): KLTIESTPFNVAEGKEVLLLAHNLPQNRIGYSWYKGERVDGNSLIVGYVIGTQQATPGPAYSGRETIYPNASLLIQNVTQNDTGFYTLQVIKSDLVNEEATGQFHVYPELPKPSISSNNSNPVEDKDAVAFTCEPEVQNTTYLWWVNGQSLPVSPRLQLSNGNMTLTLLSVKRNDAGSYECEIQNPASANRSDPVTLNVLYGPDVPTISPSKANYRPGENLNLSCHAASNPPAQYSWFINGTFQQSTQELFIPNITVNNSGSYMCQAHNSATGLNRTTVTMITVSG

B1: anti-CD66c chimeric antibody 8F5 (antibody, human IgG1, V domains shown)
VH: EVQLQQSGPELVKPGASMKISCKASGYSFTDYTMNWVKQSHGKNLEWIGLINPFHGGTVSNQRFKVKATLTVDVSSNTAYMELLSLTSDDSAVYYCVRGDPVRHYYALAYWGQGTSVTVSS
VL: DIQMTQSPASLSASVGETVTITCGASENVYGTLNWYQRKQGKSPQLLIYGATNLADGMSSRFSGSGSGRQYSLKISSLHPDDVATYYCQNVLSAPYTFGGGTKLEII
notes: also called chimeric 8F5; chi 8F5
B2: recombinant humanized anti-CD66c antibody Protein ID 3058 (Vk8 + VH11) (antibody, human IgG1, V domains shown)
VH: QVQLVQSGAEVKKPGASVKISCKASGYSFTDYTMHWVKQAPGQNLEWIGLINPFGGSTSYAQKFKGRVTMTRDTSTNTAYMELSRLRSDDTAVYYCVRGDPVRHYYALAYWGQGTLVTVSS
VL: DIQMTQSPSTLSASVGDRVTITCRASENVYGTLNWYQRKPGKAPKLLIYGATNLADGMPSRFSGSGSGTEYTLTISSLQPDDFATYYCQNVLSAPYTFGGGTKLEIK
notes: also called hu 3058; #86
B3: recombinant humanized anti-CD66c antibody Protein ID 3007 (Vk7 + VH6) (antibody, human IgG1, V domains shown)
VH: QVQLVQSGAEVKKPGASMKISCKASGYSFTDYTMNWVKQAPGQNLEWIGLINPFHGGTVSNQRFKVKATLTVDVSTNTAYMELSRLRSDDTAVYYCVRGDPVRHYYALAYWGQGTLVTVSS
VL: DIQMTQSPSTLSASVGDRVTITCGASENVYGTLNWYQRKPGKAPKLLIYGATNLADGVPSRFSGSGSGTEYTLTISSLQPDDFATYYCQNVLSAPYTFGGGTKLEIK
notes: also called hu 3007; #43
B4: recombinant humanized anti-CD66c antibody Protein ID 2938 (Vk5 + VH7) (antibody, human IgG1, V domains shown)
VH: QVQLVQSGAEVKKPGASMKISCKASGYSFTDYTMNWVRQAPGQGLEWIGLINPFHGGTVSNQRFKVKATLTVDVSTNTAYMELSRLRSDDTAVYYCVRGDPVRHYYALAYWGQGTLVTVSS
VL: DIQMTQSPSTLSASVGDRVTITCGASENVYGTLAWYQRKPGKAPKLLIYGATNLADGVPSRFSGSGSGREYTLTISSLQPDDFATYYCQNVLSAPYTFGGGTKLEIK
notes: also called hu 2938
B5: recombinant humanized anti-CD66c antibody Protein ID 3043 (Vk8 + VH6) (antibody, V domains shown)
VH: QVQLVQSGAEVKKPGASMKISCKASGYSFTDYTMNWVKQAPGQNLEWIGLINPFHGGTVSNQRFKVKATLTVDVSTNTAYMELSRLRSDDTAVYYCVRGDPVRHYYALAYWGQGTLVTVSS
VL: DIQMTQSPSTLSASVGDRVTITCRASENVYGTLNWYQRKPGKAPKLLIYGATNLADGMPSRFSGSGSGTEYTLTISSLQPDDFATYYCQNVLSAPYTFGGGTKLEIK
notes: also called hu 3043; #71

What was measured:
[1] = biological target: T1, Antigen CD66c (CEACAM6; Sino …); assay: ELISA, CEACAM6 coated 100 ng/well, antibody at 0.17 ng/ml
Method: (§1) Antigen CD66c (CEACAM6; Sino Biological, Inc.) and CEACAM1 antigen (Sino Biological, Inc.) were coated on a 96-well plate at a rate of 100 ng per well and then blocked. The primary antibody was diluted 3-fold from 10 ug/ml and bound at 37° C. for 1 hour. […] goat anti-Human Ig-HRP conjugate (Jackson ImmunoResearch) as a secondary antibody was diluted 1:10,000 and incubated at 37° C. for 30 minutes. The washing was carried out at three times between each step, and the TMB reaction was performed, stopped with 1N H₂SO₄ solution at the same amount of TMB solution (100 ul) and then OD value was measured at 450 nm.
(§2) As a result of the experiment, the binding affinities to CD66c antigen of the five kinds of recombinant humanized antibodies selected from among 96 kinds of recombinant humanized antibodies are shown in FIG. 4a, Table 12, FIG. 4b and Table 13. FIG. 4a and Table 12 show the binding capacity of the antibodies to CECACAM6 CD66c) antigen, and FIG. 4b and Table 13 are the results for the CEACAM1 (CD66a) antigen.

[2] = biological target: T1, Antigen CD66c (CEACAM6; Sino …); assay: ELISA, CEACAM6 coated 100 ng/well, antibody at 0.51 ng/ml
Method: as §1, §2

[3] = biological target: T1, Antigen CD66c (CEACAM6; Sino …); assay: ELISA, CEACAM6 coated 100 ng/well, antibody at 4.57 ng/ml
Method: as §1, §2

[4] = biological target: T2, CEACAM1 antigen (Sino Biological, Inc.); assay: ELISA, CEACAM1 coated 100 ng/well, antibody at 1.52 ng/ml
Method: as §1

[5] = biological target: T1, Antigen CD66c (CEACAM6; Sino …); assay: ELISA, CEACAM6 coated 100 ng/well, antibody at 13.72 ng/ml
Method: as §1, §2

[6] = biological target: T1, Antigen CD66c (CEACAM6; Sino …); assay: ELISA, CEACAM6 coated 100 ng/well, antibody at 41.15 ng/ml
Method: as §1

[7] = biological target: T2, CEACAM1 antigen (Sino Biological, Inc.); assay: ELISA, CEACAM1 coated 100 ng/well, antibody at 13.72 ng/ml
Method: as §1

[8] = biological target: T2, CEACAM1 antigen (Sino Biological, Inc.); assay: ELISA, CEACAM1 coated 100 ng/well, antibody at 41.15 ng/ml
Method: as §1

[9] = biological target: T1, Antigen CD66c (CEACAM6; Sino …); assay: ELISA, CEACAM6 coated 100 ng/well, antibody at 123.46 ng/ml
Method: as §1, §2

[10] = biological target: T2, CEACAM1 antigen (Sino Biological, Inc.); assay: ELISA, CEACAM1 coated 100 ng/well, antibody at 1111.11 ng/ml
Method: as §1

[11] = biological target: T2, CEACAM1 antigen (Sino Biological, Inc.); assay: ELISA, CEACAM1 coated 100 ng/well, antibody at 3333.33 ng/ml
Method: as §1

[12] = biological target: T1, Antigen CD66c (CEACAM6; Sino …); assay: ELISA, CEACAM6 coated 100 ng/well, antibody at 10000.00 ng/ml
Method: as §1, §2

[13] = biological target: T3, CD66c (Cluster of Differentiation 66c) …; assay: flow cytometry on CD66c-positive A549 cells, FITC anti-human IgG
Method: Each expressed 96 recombinant humanized antibody was poured and reacted in a test tube containing the same amount […] of CD66c-positive A549 non-small-cell lung cancer cell line at 4° C. for 30 minutes, washed with PBS, and treated with FITC-conjugated goat anti-Huma IgG (DiNona Inc, Korea) was added and incubated at 4° C. for 15 minutes. After washing with PBS, the cells were analyzed with a flow cytometer (Stratedigm, S1000EXi) and the results are shown below.
Among the 96 recombinant humanized antibody candidates, eight were firstly selected based on the degree of expression, the presence of aggregation, and the degree of cell binding (Table 9 and Table 10, FIGS. 3A to 3E).

Binder	OD 450 nm [1]	OD 450 nm [2]	OD 450 nm [3]	OD 450 nm [4]	OD 450 nm [5]	OD 450 nm [6]	OD 450 nm [7]	OD 450 nm [8]	OD 450 nm [9]	OD 450 nm [10]	OD 450 nm [11]	OD 450 nm [12]	% (% gated × mean), against the chimeric antibody [13]	% gated [13]	Mean (fluorescence) [13]
B1	0.4 OD 450 nm	0.41 OD 450 nm	0.8 OD 450 nm	0.16 OD 450 nm	1.15 OD 450 nm	2.02 OD 450 nm	0.51 OD 450 nm	0.82 OD 450 nm	2.83 OD 450 nm	1.21 OD 450 nm	1.24 OD 450 nm	3.17 OD 450 nm	100%	73%	619
B2	0.37 OD 450 nm	0.38 OD 450 nm	0.74 OD 450 nm	0.05 OD 450 nm	1.06 OD 450 nm	1.38 OD 450 nm	0.05 OD 450 nm	0.07 OD 450 nm	2.22 OD 450 nm	0.19 OD 450 nm	0.31 OD 450 nm	2.87 OD 450 nm	103%	72%	645
B3	0.53 OD 450 nm	0.64 OD 450 nm	1.02 OD 450 nm	0.18 OD 450 nm	1.64 OD 450 nm	2.17 OD 450 nm	0.46 OD 450 nm	0.66 OD 450 nm	2.9 OD 450 nm	1.06 OD 450 nm	1.15 OD 450 nm	3.37 OD 450 nm	88.8%	71%	565
B4	0.3 OD 450 nm	0.36 OD 450 nm	0.65 OD 450 nm	0.05 OD 450 nm	1.15 OD 450 nm	1.72 OD 450 nm	0.06 OD 450 nm	0.07 OD 450 nm	2.56 OD 450 nm	0.21 OD 450 nm	0.27 OD 450 nm	3.43 OD 450 nm	96%	71%	611
B5	0.41 OD 450 nm	0.49 OD 450 nm	0.91 OD 450 nm	0.16 OD 450 nm	1.37 OD 450 nm	1.73 OD 450 nm	0.43 OD 450 nm	0.61 OD 450 nm	2.29 OD 450 nm	1.17 OD 450 nm	1.22 OD 450 nm	2.73 OD 450 nm	105%	69%	686
